The record followed here is ChEMBL document CHEMBL1908105, “UDP-glucuronosyltransferases and clinical drug-drug interactions” (Pharmacol Ther, 2005).

The target in data set [1] is UDP-glucuronosyltransferase 2B15 (Homo sapiens, UniProt P54855). Briefly: Drug glucuronidation reaction catalyzed by human recombinant UGT2B15.
Data set [2] concerns the target T1, UDP-glucuronosyltransferase 1A4 (Homo sapiens, UniProt P22310).
T1 sequence (P22310 whole entry): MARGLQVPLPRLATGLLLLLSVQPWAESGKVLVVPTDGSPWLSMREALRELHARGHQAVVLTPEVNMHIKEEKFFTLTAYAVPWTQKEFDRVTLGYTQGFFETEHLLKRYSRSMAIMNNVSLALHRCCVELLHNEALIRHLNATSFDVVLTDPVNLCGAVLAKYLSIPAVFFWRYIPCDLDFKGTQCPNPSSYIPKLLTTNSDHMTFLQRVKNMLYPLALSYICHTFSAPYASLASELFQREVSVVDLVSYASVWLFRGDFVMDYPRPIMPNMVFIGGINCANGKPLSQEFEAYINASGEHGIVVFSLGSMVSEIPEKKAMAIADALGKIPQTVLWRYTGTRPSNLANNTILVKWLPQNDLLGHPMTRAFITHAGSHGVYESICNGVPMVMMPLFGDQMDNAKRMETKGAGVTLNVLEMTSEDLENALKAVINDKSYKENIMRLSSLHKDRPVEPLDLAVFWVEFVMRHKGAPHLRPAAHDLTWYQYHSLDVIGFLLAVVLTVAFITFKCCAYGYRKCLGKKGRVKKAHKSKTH
Briefly: Drug glucuronidation reaction catalyzed by human recombinant UGT1A4.

Data set [3] has as its target T2, UDP-glucuronosyltransferase 1A1 (Homo sapiens, UniProt P22309).
T2 sequence (P22309 whole entry): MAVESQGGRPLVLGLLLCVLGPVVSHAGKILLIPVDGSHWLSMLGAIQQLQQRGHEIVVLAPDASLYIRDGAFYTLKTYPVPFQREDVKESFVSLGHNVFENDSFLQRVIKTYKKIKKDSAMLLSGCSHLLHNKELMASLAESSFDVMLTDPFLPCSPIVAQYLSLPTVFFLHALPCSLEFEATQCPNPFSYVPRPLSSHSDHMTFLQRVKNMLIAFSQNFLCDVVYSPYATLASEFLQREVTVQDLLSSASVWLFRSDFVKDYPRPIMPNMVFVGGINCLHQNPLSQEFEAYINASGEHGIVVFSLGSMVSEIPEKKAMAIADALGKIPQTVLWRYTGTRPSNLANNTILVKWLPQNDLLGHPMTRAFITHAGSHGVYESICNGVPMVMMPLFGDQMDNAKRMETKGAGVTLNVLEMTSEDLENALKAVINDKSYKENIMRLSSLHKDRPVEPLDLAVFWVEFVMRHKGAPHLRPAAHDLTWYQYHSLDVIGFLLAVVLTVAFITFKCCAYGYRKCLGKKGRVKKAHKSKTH
Briefly: Drug glucuronidation reaction catalyzed by human recombinant UGT1A1.

The target in data set [4] is T3, UDP-glucuronosyltransferase 1A9 (Homo sapiens, UniProt O60656).
T3 sequence (O60656 whole entry): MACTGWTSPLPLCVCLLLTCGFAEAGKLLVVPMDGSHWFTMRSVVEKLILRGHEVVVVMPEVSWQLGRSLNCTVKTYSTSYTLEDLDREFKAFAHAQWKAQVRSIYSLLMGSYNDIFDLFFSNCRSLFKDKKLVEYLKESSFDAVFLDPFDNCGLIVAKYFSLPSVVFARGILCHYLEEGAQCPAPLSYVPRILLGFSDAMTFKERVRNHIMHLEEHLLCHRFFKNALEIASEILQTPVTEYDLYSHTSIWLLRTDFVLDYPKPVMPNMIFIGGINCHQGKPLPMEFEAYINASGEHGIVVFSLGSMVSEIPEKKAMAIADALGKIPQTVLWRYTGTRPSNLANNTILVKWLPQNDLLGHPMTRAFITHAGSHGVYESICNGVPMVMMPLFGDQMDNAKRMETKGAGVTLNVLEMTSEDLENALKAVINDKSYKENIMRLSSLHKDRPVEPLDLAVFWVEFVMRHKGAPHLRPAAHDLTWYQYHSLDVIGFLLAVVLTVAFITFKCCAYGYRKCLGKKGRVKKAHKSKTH
Briefly: Drug glucuronidation reaction catalyzed by human recombinant UGT1A9.

The target of data set [5] is T4, UDP-glucuronosyltransferase 1A3 (Homo sapiens, UniProt P35503).
T4 sequence (P35503 whole entry): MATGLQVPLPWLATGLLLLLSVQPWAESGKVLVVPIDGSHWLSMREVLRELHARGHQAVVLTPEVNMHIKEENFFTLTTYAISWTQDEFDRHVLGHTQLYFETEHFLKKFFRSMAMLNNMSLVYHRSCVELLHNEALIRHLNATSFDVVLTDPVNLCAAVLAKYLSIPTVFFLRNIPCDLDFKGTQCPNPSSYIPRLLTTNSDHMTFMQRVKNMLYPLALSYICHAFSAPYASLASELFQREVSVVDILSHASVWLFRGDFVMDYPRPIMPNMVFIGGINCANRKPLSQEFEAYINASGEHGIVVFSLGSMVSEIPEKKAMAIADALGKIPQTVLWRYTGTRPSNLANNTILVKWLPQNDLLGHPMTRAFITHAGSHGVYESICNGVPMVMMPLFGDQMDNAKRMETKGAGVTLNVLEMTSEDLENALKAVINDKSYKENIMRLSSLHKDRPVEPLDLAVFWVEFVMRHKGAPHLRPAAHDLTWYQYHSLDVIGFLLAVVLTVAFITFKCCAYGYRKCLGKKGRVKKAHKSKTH
Briefly: (§1) Drug glucuronidation reaction catalyzed by human recombinant UGT1A3.

Another data set has as its target UGT1A3 (Homo sapiens, UniProt P35503). The description is as §1. The conditions noted are these: recombinant UGT1A3.
Data set [6] is described as follows: Inhibition of AZT glucuronidation by human UGT enzymes from liver microsomes. More on the design: species or system Microsome.
For a further data set, the target named is T5, UGT2B7 (Homo sapiens, UniProt P16662).
T5 sequence (P16662 whole entry): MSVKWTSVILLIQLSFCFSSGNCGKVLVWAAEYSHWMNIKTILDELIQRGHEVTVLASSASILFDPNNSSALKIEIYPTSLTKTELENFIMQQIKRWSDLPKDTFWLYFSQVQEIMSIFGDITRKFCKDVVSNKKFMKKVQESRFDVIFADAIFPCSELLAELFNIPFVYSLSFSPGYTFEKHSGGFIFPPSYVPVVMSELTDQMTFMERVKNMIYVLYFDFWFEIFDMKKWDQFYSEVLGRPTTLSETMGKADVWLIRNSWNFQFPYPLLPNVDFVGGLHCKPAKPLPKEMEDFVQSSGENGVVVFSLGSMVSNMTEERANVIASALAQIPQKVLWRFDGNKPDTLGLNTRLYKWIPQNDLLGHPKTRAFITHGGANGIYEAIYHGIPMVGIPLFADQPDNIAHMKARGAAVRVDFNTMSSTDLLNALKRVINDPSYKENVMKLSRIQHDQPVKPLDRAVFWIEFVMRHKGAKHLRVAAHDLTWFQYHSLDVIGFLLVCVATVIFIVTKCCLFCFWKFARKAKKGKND
Briefly: (§2) Drug glucuronidation reaction catalyzed by human recombinant UGT2B7. The conditions noted are these: recombinant UGT2B7.

The target of data set [7] is T6, UDP-glucuronosyltransferase 2B7 (Homo sapiens, UniProt P16662).
T6 sequence (P16662 whole entry): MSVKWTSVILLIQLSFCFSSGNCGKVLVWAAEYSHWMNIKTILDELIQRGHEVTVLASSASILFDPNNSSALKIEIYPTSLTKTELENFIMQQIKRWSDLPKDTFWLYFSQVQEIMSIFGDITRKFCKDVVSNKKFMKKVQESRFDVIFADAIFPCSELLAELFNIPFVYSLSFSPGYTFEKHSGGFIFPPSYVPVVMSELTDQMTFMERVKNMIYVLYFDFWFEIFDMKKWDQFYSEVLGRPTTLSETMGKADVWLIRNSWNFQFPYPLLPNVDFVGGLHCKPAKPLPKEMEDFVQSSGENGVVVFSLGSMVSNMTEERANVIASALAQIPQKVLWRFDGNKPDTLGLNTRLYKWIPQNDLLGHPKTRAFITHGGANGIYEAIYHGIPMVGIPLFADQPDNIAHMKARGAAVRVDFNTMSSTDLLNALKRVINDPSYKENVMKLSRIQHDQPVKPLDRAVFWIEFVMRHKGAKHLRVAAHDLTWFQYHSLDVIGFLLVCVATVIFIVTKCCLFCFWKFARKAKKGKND
The data set is described as §2.

Data set [8] can be described thus: Inhibition of AZT (0.02 mM) glucuronidation by human UGT enzymes from liver microsomes. The arrangement: species or system Microsome.
Substrate in data set [9]: O=C1Nc2ccc(Cl)cc2C(c2ccccc2)=N[C@H]1O
Briefly: not read.

Substrate in data set [10]: O=C1Nc2ccc(Cl)cc2C(c2ccccc2)=N[C@@H]1O
Briefly: not read.

Substrate in data set [11]: Cc1c(Cl)cccc1Nc1ncccc1C(=O)O
Briefly: not read.

Substrate in data set [12]: C=CCN1CC[C@]23c4c5ccc(O)c4O[C@H]2[C@@H](O)C=C[C@H]3[C@H]1C5
The description is as §2.

Substrate in data set [13]: COc1ccc(Cl)cc1[C@]1(F)C(=O)Nc2cc(C(F)(F)F)ccc21
The description is as §2.

Substrate in data set [14]: CS(=O)(=O)c1ccc(C2=C(c3ccccc3)C(=O)OC2O)cc1
The data set is described as §2.

Substrate in data set [15]: CC(C(=O)O)c1cccc(C(=O)c2ccccc2)c1
The data set is described as §2.

Substrate in data set [16]: O=C1[C@H](CC[C@H](O)c2ccc(F)cc2)[C@@H](c2ccc(O)cc2)N1c1ccc(F)cc1
The data set is described as §2.

Substrate in data set [17]: C=CC[C@@H]1/C=C(\C)C[C@H](C)C[C@H](OC)[C@H]2O[C@@](O)(C(=O)C(=O)N3CCCC[C@H]3C(=O)O[C@H](/C(C)=C/[C@@H]3CC[C@@H](O)[C@H](OC)C3)[C@H](C)[C@@H](O)CC1=O)[C@H](C)C[C@@H]2OC
The data set is described as §2.

Substrate in data set [18]: COc1cccc2c1C(=O)c1c(O)c3c(c(O)c1C2=O)C[C@@](O)(C(=O)CO)C[C@@H]3O[C@H]1C[C@H](N)[C@@H](O)[C@H](C)O1
Described as §2.

Substrate in data set [19]: CC(C)Cc1ccc(C(C)C(=O)O)cc1
The description is as §2.

Substrate in data set [20]: CCC[S+]([O-])CCCN(CC)CC(O)COc1ccc(C#N)cc1
The description is as §2.

Substrate in data set [21]: NC(=O)N1c2ccccc2C=Cc2ccccc21
The description is as §2.

Substrate in data set [22]: CO[C@]12CC[C@@]3(C[C@@H]1[C@](C)(O)C(C)(C)C)[C@H]1Cc4ccc(O)c5c4[C@@]3(CCN1CC1CC1)[C@H]2O5
The data set is described as §2.

UDP-glucuronosyltransferase 2B15, sequence (P54855 whole entry): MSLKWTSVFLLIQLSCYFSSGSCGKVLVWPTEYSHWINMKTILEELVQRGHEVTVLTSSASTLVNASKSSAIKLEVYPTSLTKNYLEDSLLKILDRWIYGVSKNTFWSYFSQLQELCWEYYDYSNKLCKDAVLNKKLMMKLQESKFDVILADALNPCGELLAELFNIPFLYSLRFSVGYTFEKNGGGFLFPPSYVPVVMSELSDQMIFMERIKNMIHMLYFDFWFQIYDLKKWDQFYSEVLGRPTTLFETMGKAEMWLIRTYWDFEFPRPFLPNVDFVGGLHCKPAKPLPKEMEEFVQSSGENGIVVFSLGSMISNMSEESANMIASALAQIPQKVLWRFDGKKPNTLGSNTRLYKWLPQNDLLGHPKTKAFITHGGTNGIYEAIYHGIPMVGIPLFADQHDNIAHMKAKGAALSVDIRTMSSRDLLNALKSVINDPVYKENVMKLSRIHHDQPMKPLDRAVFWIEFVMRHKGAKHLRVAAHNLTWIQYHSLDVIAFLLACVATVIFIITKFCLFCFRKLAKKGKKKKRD

Consider `CC(O)/C(=C(\c1ccccc1)c1ccc(OCCN(C)C)cc1)c1ccccc1` (stereo in doubt; cis), for which the Vmax was 720 pmol/min/mg protein in data set [1], 315 pmol/min/mg protein in data set [2], 291 pmol/min/mg protein in [3] and 57 pmol/min/mg protein in data set [4].

With `CC(C(=O)O)c1ccc(-c2ccccc2)c(F)c1` (stereo not drawn) [FLURBIPROFEN], the Vmax in data set [5] was 45 pmol/min/mg protein; in data set [7], 315 pmol/min/mg protein. Besides, the Km on UGT1A3 worked out at 90 µM; at UGT2B7, 28 µM. Moreover, in [6], the Ki came to 50 µM.

In data set [8], `OC(Cn1cncn1)(Cn1cncn1)c1ccc(F)cc1F` [FLUCONAZOLE] registered an IC50 of 163 µM.

In the case of `O=C1C(O)=C([C@H]2CC[C@H](c3ccc(Cl)cc3)CC2)C(=O)c2ccccc21` [ATOVAQUONE], the IC50 in data set [8] is > 273 µM.

Turning to `CC(O)/C(=C(\c1ccccc1)c1ccc(OCCN(C)C)cc1)c1ccccc1` (stereo in doubt; trans), the Vmax in data set [1] came to 70 pmol/min/mg protein; in [2], 547 pmol/min/mg protein; in data set [3], 166 pmol/min/mg protein; in [4] it was 72 pmol/min/mg protein.

B1: UDP-glucuronosyltransferase 2B7 (Homo sapiens) (protein)
chain: MSVKWTSVILLIQLSFCFSSGNCGKVLVWAAEYSHWMNIKTILDELIQRGHEVTVLASSASILFDPNNSSALKIEIYPTSLTKTELENFIMQQIKRWSDLPKDTFWLYFSQVQEIMSIFGDITRKFCKDVVSNKKFMKKVQESRFDVIFADAIFPCSELLAELFNIPFVYSLSFSPGYTFEKHSGGFIFPPSYVPVVMSELTDQMTFMERVKNMIYVLYFDFWFEIFDMKKWDQFYSEVLGRPTTLSETMGKADVWLIRNSWNFQFPYPLLPNVDFVGGLHCKPAKPLPKEMEDFVQSSGENGVVVFSLGSMVSNMTEERANVIASALAQIPQKVLWRFDGNKPDTLGLNTRLYKWIPQNDLLGHPKTRAFITHGGANGIYEAIYHGIPMVGIPLFADQPDNIAHMKARGAAVRVDFNTMSSTDLLNALKRVINDPSYKENVMKLSRIQHDQPVKPLDRAVFWIEFVMRHKGAKHLRVAAHDLTWFQYHSLDVIGFLLVCVATVIFIVTKCCLFCFWKFARKAKKGKND
For the molecule B1, the Km in “not read [9]” stood at 203 µM; in “not read [10]”, 333 µM; in the data set “not read [11]”, 64 µM; in data set [12], 260 µM; in data set [13], 14 µM; in [14], 42 µM. Also, the Km in [15] amounted to 112 µM; in data set [16], 21 µM; in data set [17], 449 µM; in data set [18], 149 µM; in [19], 55 µM; in [20] it was 970 µM. In addition, the Km was found to be 214 µM in data set [21] and 24 µM in [22]. In addition, the Vmax in the data set “not read [9]” stood at 2e-06 µmol/min/mg; in “not read [10]” it was 7e-06 µmol/min/mg; in “not read [11]”, 0.00022 µmol/min/mg; in data set [12], 0.000461 µmol/min/mg; in [13], 0.00029 µmol/min/mg; in data set [14], 4.7e-05 µmol/min/mg. Moreover, the Vmax was determined as 0.00045 µmol/min/mg in [15]; 5e-05 µmol/min/mg in data set [16]; 0.000588 µmol/min/mg in [17]; 9.9e-05 µmol/min/mg in data set [18]; 0.000477 µmol/min/mg in data set [19]; 2.1e-05 µmol/min/mg in data set [20]. Also, the Vmax in data set [21] amounted to 1e-06 µmol/min/mg; in [22], 2.6e-05 µmol/min/mg.
